In article PMC9868604, “Structural insights into 3Fe–4S ferredoxins diversity in M. tuberculosis highlighted by a first redox complex with P450” (Frontiers in Molecular Biosciences, 2022):

Columns and labels:
Conditions in all cases: both partners purified
[1] = target: T1, Biotinylated CYP143 with Avi-tag at the C-terminus (M. tuberculosis, UniProt P9WPL3 2-393, biotin (on the Avi-tag)); test: SPR
T1 construct: also called CYP143A1; Rv1785c; not shown: Avi-tag, C-terminal, kept

[2] = target: T1, Biotinylated CYP143 with Avi-tag at the …; test: SPR; as a1, sensorgrams at 10, 15, 20, 25, 30 and 35°C; enthalpy from the slope of a Van't Hoff plot
[3] = target: T2, CYP143 part of the FdxE-CYP143 fusion protein (M. tuberculosis, UniProt P9WPL3 2-393); test: crystal structure; FdxE fused via a linker to the N-terminus of CYP143 on one chain; 1.6 Å; crystals in .2 M sodium chloride, .1 M Bis-Tris pH 6.0, 25% PEG3350, 20°C
T2 construct: also called fusion FdxE–CYP143
T2 sequence (P9WPL3 2-393): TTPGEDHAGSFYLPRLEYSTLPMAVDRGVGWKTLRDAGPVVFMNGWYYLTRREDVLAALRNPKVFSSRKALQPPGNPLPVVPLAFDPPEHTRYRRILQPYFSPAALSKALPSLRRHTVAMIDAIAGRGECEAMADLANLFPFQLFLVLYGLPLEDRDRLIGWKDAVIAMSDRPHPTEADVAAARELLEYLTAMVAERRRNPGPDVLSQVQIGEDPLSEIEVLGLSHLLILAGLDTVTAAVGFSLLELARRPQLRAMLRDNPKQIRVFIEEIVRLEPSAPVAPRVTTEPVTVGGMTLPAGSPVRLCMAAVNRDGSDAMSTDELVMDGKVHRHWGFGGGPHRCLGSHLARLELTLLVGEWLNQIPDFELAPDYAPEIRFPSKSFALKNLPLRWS

T1 sequence (P9WPL3 2-393): as above

Binder	Kd [1] [nM]	koff [1] [s⁻¹]	kon [1] [M⁻¹ s⁻¹]	dH [2] [kJ/mol]	binding result [3]
FdxE (Rv1786), 3Fe-4S ferredoxin of M. tuberculosis (natural protein, also called ferredoxin Rv1786; mtb_1786) MKVRLDPSRCVGHAQCYAVDPDLFPIDDSGNSILAEHEVRPEDMQLTRDGVAACPEMALILEEDDAD	84 ± 2	0.0423 ± 0.0005	502000	-45 ± 9	
FdxE part of the FdxE-CYP143 fusion protein (domain or fragment, also called fusion FdxE–CYP143; not shown: His-tag, N-terminal, kept) KVRLDPSRCVGHAQCYAVDPDLFPIDDSGNSILAEHEVRPEDMQLTRDGVAACPEMALILEEDDAD					binds
